These results are taken from patent US11982671B2, “Identification of a T cell epitope of Prevotella copri that induces T cell responses in patients with rheumatoid arthritis” (priority 2016, dated 2024).

The subject of the assay is serum IgG and IgA antibodies. Description: ELISA for serum IgG and IgA antibodies to the P. copri protein (Pc-p27). The assay is classed as binding, human. How it is done:
ELISA for serum IgG and IgA antibodies to the P. copri protein (Pc-p27). ELISA plates were coated with 0.25 μg/ml of the P. copri protein Pc-p27 (GenScript USA Inc, Piscataway, N.J.) overnight at 4° C. Subsequent incubations and washes were performed at room temperature. After washing with phosphate buffered saline with 0.05% Tween-20 (PBST), the plates were incubated with blocking buffer (5% nonfat dry milk in PBST) for one hour. Afterwards, 100 μl of each patient's serum sample (diluted 200-fold) was added in duplicate wells for 1.5 hours, followed by horseradish-peroxidase (HRP)-conjugated goat anti-human IgG (sc-2453, Santa Cruz Biotech) or HRP-conjugated goat anti-human IgA (Bio-Rad, Hercules, Calif.) and then TMB substrate (BD, San Diego, Calif.). For inter-plate standardization, 2 control samples were included on each plate.
Background: ELISA stands for enzyme-linked immunosorbent assay.

B1: Pc-p27: full length 27-kD protein of P. copri, recombinant (GenScript) (protein, listed as Prevotella copri)
chain: MKRIILILTVLLAMLGQVAYAQKTCVIASAENHVPIREALIHTNNNHWARTDYRGYWTMRYQFDSATVSKPGFMKATIRYKELPDTLFLLPDAKQLGEVTVWGKNQEGIKNMEEDIQEKINSLPTSSTGIGFDAFGWMDKQGKRDKKHLQQAKKVFEKMEHKDPVVAAYEKATGKKYELTNPYDVSAFKKDPPSEMATEEKKATSDAESKSKKKENPEKYAQE
With B1, for the setting “49 CRA patients”, the “patients with positive IgG antibody responses” value was 20%. In addition, the “patients with IgG antibody responses >3 SD above HC” value (78 NORA patients, serum diluted 200-fold) stood at 13%. Further, the “patients with IgG or IgA antibody responses” value (127 RA patients) is given as 24%. Also, the “patients with IgA antibody responses” value (both the NORA and CRA groups) is “About 10%”.
